Experimental findings from US20200079833A1 (AstraZeneca / MedImmune, published 2020) are described below.

The labels stand for the following.
B1: SEQ ID NO: 269 (peptide)
peptide: H[Aib]EGS[αMeF]TSDV[αMeS]SYK([PEG2′-PEG2′-γGlu-Lauroyl])EGEAA[αMeK]EFIAK([PEG2′-PEG2′-γGlu-Lauroyl])VVEGG-NH2
B2: SEQ ID NO: 268 (peptide)
peptide: H[Aib]EGS[αMeF]TSDV[αMeS]SYK([PEG2′-PEG2′-γGlu-Lauroyl])EGEAA[αMeK]EFIK([PEG2′-PEG2′-γGlu-Lauroyl])WVVEGG-NH2
B3: SEQ ID NO: 253 (peptide)
peptide: H[Aib]EGS[αMeF]TSDVSK([PEG2′-PEG2′-γGlu-Lauroyl])YLEGEAA[αMeK]EFIAWK([PEG2′-PEG2′-γGlu-Lauroyl])VEGG-NH2
B4: SEQ ID NO: 262 (peptide)
peptide: H[Aib]EGS[αMeF]TSDV[αMeS]SK([PEG2′-PEG2′-γGlu-Lauroyl])LEGEAA[αMeK]EFIK([PEG2′-PEG2′-γGlu-Lauroyl])WVVEGG-NH2
B5: SEQ ID NO: 257 (peptide)
peptide: H[Aib]EGS[αMeF]TSDK([PEG2′-PEG2′-γGlu-Lauroyl])SSYLEGEAA[αMeK]EFIAK([PEG2′-PEG2′-γGlu-Lauroyl])VVEGG-NH2
B6: SEQ ID NO: 270 (peptide)
peptide: H[Aib]EGS[αMeF]TSDV[αMeS]SYK([PEG2′-PEG2′-γGlu-Lauroyl])EGEAA[αMeK]EFIAWK([PEG2′-PEG2′-γGlu-Lauroyl])VEGG-NH2
B7: SEQ ID NO: 265 (peptide)
peptide: H[Aib]EGS[αMeF]TSDV[αMeS]SK([PEG2′-PEG2′-γGlu-Palmitoyl])LEGEAA[αMeK]EFIK([PEG2′-PEG2′-γGlu-Palmitoyl])WVVEGG-NH2
B8: SEQ ID NO: 256 (peptide)
peptide: H[Aib]EGS[αMeF]TSDK([PEG2′-PEG2′-γGlu-Lauroyl])SSYLEGEAA[αMeK]EFIK([PEG2′-PEG2′-γGlu-Lauroyl])WVVEGG-NH2
B9: SEQ ID NO: 264 (peptide)
peptide: H[Aib]EGS[αMeF]TSDV[αMeS]SK([PEG2′-PEG2′-γGlu-Lauroyl])LEGEAA[αMeK]EFIAWK([PEG2′-PEG2′-γGlu-Lauroyl])VEGG-NH2
B10: SEQ ID NO: 263 (peptide)
peptide: H[Aib]EGS[αMeF]TSDV[αMeS]SK([PEG2′-PEG2′-γGlu-Lauroyl])LEGEAA[αMeK]EFIAK([PEG2′-PEG2′-γGlu-Lauroyl])VVEGG-NH2

Starred links: 1 amine or outer side, 2 acyl side, 3 side chain; linkers in the order of their positions; H or OH if unused. Non-standard residues stand in square brackets, D forms with d. Groups on a side chain read outwards from the residue. Primed or numbered codes have the meaning given here. No end group written: not given here. *: point of attachment. γGlu = O=C(O)[C@H](CCC(=O)[*:2])N[*:1]; Palmitoyl = CCCCCCCCCCCCCCCC(=O)*; αMeF = C[C@](N)(Cc1ccccc1)C(=O)O; αMeK = C[C@](N)(CCCCN)C(=O)O; Lauroyl = CCCCCCCCCCCC(=O)*; αMeS = C[C@](N)(CO)C(=O)O; PEG2′ = not defined here; Aib = CC(C)(N)C(=O)O

The target of the first assay is T1, GLP-1R in the INS1e assay (UniProt P32301 22-463, limits assumed).
T1 sequence (looked up): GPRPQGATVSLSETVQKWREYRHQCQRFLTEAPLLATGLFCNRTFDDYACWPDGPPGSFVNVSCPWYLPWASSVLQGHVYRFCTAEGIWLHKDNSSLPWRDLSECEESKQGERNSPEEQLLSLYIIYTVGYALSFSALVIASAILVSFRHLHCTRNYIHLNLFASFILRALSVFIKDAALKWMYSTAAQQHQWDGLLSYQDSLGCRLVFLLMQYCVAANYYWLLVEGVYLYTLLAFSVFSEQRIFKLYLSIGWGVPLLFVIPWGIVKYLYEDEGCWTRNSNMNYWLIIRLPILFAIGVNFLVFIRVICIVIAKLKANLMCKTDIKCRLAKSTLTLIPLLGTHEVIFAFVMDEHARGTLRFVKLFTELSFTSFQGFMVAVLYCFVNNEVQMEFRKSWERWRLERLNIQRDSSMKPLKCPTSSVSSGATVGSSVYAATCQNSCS
The experiment in a line: cell-based or functional assay.
Consider B1, for which the “INS1e assay EC50 (cAMP) Mean” value stood at 0.212 nM, the “INS1e assay EC50 (cAMP) n1” value came out at 0.243 nM and the “INS1e assay EC50 (cAMP) n2” value turned out to be 0.181 nM.

Consider B2, for which the “INS1e assay EC50 (cAMP) Mean” value is 1.16 nM, the “INS1e assay EC50 (cAMP) n1” value stood at 1.09 nM and the “INS1e assay EC50 (cAMP) n2” value came to 1.23 nM.

Consider B3, for which the “INS1e assay EC50 (cAMP) Mean” value was determined as 2.11 nM, the “INS1e assay EC50 (cAMP) n1” value was 2.08 nM and the “INS1e assay EC50 (cAMP) n2” value was 2.14 nM.

On to B4, for which the “INS1e assay EC50 (cAMP) Mean” value worked out at 0.552 nM, the “INS1e assay EC50 (cAMP) n1” value was determined as 0.7 nM and the “INS1e assay EC50 (cAMP) n2” value was determined as 0.403 nM.

On to B5, for which the “INS1e assay EC50 (cAMP) Mean” value was found to be 0.577 nM, the “INS1e assay EC50 (cAMP) n1” value was 0.812 nM and the “INS1e assay EC50 (cAMP) n2” value worked out at 0.342 nM.

In the case of B6, the “INS1e assay EC50 (cAMP) Mean” value is 1.72 nM, the “INS1e assay EC50 (cAMP) n1” value was determined as 1.41 nM and the “INS1e assay EC50 (cAMP) n2” value was determined as 2.02 nM.

Regarding B7, the “INS1e assay EC50 (cAMP) Mean” value came out at 8.77 nM, the “INS1e assay EC50 (cAMP) n1” value is 12.2 nM and the “INS1e assay EC50 (cAMP) n2” value came to 5.34 nM.

Turning to B8, the “INS1e assay EC50 (cAMP) Mean” value came out at 1.29 nM, the “INS1e assay EC50 (cAMP) n1” value amounted to 1.25 nM and the “INS1e assay EC50 (cAMP) n2” value amounted to 1.34 nM.

In the case of B9, the “INS1e assay EC50 (cAMP) Mean” value turned out to be 1.03 nM, the “INS1e assay EC50 (cAMP) n1” value is 0.963 nM and the “INS1e assay EC50 (cAMP) n2” value was 1.1 nM.

As to B10, the “INS1e assay EC50 (cAMP) Mean” value was found to be 0.132 nM, the “INS1e assay EC50 (cAMP) n1” value was 0.12 nM and the “INS1e assay EC50 (cAMP) n2” value stood at 0.144 nM.

A further assay deals with glucagon receptor (GCGR), primary cAMP assay (human, UniProt P47871 26-477). The assay is described as follows: cell-based or functional assay.
Chain of glucagon receptor (GCGR), primary cAMP assay (P47871 26-477): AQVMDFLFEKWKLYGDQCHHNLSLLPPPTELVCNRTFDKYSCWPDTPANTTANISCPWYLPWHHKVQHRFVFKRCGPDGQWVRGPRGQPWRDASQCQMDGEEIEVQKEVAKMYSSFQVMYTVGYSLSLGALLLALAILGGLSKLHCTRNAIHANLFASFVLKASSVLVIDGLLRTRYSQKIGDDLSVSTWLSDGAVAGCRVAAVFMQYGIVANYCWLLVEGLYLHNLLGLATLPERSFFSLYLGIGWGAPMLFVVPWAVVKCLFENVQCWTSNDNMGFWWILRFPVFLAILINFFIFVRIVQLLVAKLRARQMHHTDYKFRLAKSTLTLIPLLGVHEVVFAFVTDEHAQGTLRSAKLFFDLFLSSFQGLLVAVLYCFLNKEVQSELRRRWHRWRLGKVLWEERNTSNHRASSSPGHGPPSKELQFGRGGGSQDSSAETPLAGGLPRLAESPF
In the case of B1, the “Primary assay EC50 (cAMP), n1” value was found to be 22.8 nM and the “Primary assay EC50 (cAMP), n2” value is 22.8 nM.

As to B2, the “Primary assay EC50 (cAMP), n1” value is 22.2 nM and the “Primary assay EC50 (cAMP), n2” value came to 22.2 nM.

Consider B3, for which the “Primary assay EC50 (cAMP), n1” value was 22.3 nM and the “Primary assay EC50 (cAMP), n2” value was 22.3 nM.

Consider B4, for which the “Primary assay EC50 (cAMP), n1” value amounted to 22.5 nM and the “Primary assay EC50 (cAMP), n2” value was determined as 22.5 nM.

For the molecule B5, the “Primary assay EC50 (cAMP), n1” value was 22.8 nM and the “Primary assay EC50 (cAMP), n2” value was 22.8 nM.

Take B6: the “Primary assay EC50 (cAMP), n1” value came to 22.3 nM and the “Primary assay EC50 (cAMP), n2” value is 22.3 nM.

As to B7, the “Primary assay EC50 (cAMP), n1” value came out at 21.6 nM and the “Primary assay EC50 (cAMP), n2” value amounted to 21.6 nM.

As for B8, the “Primary assay EC50 (cAMP), n1” value came out at 22.2 nM and the “Primary assay EC50 (cAMP), n2” value came out at 22.2 nM.

In the case of B9, the “Primary assay EC50 (cAMP), n1” value is 22.6 nM and the “Primary assay EC50 (cAMP), n2” value was determined as 22.6 nM.

Regarding B10, the “Primary assay EC50 (cAMP), n1” value worked out at 21.5 nM and the “Primary assay EC50 (cAMP), n2” value is 21.5 nM.

In a further assay the target is GLP-1 receptor (GLP-1R), primary cAMP assay (human, UniProt P43220 24-463). The experiment in a line: cell-based or functional assay.
On to B1, for which the “Primary assay EC50 (cAMP) Mean” value was 0.0046 nM; the “Primary assay EC50 (cAMP), n1” value was 0.00401 nM; the “Primary assay EC50 (cAMP), n2” value stood at 0.00524 nM.

For B2, the “Primary assay EC50 (cAMP) Mean” value turned out to be 0.0048 nM; the “Primary assay EC50 (cAMP), n1” value worked out at 0.00446 nM; the “Primary assay EC50 (cAMP), n2” value came out at 0.00505 nM.

Turning to B3, the “Primary assay EC50 (cAMP) Mean” value was found to be 0.0206 nM; the “Primary assay EC50 (cAMP), n1” value turned out to be 0.0234 nM; the “Primary assay EC50 (cAMP), n2” value was 0.0177 nM.

For the molecule B4, the “Primary assay EC50 (cAMP) Mean” value is 0.0054 nM; the “Primary assay EC50 (cAMP), n1” value was 0.00673 nM; the “Primary assay EC50 (cAMP), n2” value was 0.00414 nM.

With B5, the “Primary assay EC50 (cAMP) Mean” value stood at 0.0084 nM; the “Primary assay EC50 (cAMP), n1” value is 0.00436 nM; the “Primary assay EC50 (cAMP), n2” value stood at 0.0124 nM.

As for B6, the “Primary assay EC50 (cAMP) Mean” value was 0.0329 nM; the “Primary assay EC50 (cAMP), n1” value was determined as 0.0293 nM; the “Primary assay EC50 (cAMP), n2” value worked out at 0.0365 nM.

Take B7: the “Primary assay EC50 (cAMP) Mean” value came to 0.0336 nM; the “Primary assay EC50 (cAMP), n1” value was determined as 0.0391 nM; the “Primary assay EC50 (cAMP), n2” value was determined as 0.028 nM.

With B8, the “Primary assay EC50 (cAMP) Mean” value amounted to 0.0075 nM; the “Primary assay EC50 (cAMP), n1” value turned out to be 0.00946 nM; the “Primary assay EC50 (cAMP), n2” value was 0.00557 nM.

On to B9, for which the “Primary assay EC50 (cAMP) Mean” value was determined as 0.0128 nM; the “Primary assay EC50 (cAMP), n1” value came to 0.0182 nM; the “Primary assay EC50 (cAMP), n2” value was determined as 0.00737 nM.

Take B10: the “Primary assay EC50 (cAMP) Mean” value amounted to 0.0012 nM; the “Primary assay EC50 (cAMP), n1” value was found to be 0.000998 nM; the “Primary assay EC50 (cAMP), n2” value was found to be 0.00145 nM.

The target of another assay is T2, glucose-dependent insulinotropic peptide (gastric inhibitory polypeptide) receptor (GIPR), primary cAMP assay (human, UniProt P48546 22-466).
T2 sequence (looked up): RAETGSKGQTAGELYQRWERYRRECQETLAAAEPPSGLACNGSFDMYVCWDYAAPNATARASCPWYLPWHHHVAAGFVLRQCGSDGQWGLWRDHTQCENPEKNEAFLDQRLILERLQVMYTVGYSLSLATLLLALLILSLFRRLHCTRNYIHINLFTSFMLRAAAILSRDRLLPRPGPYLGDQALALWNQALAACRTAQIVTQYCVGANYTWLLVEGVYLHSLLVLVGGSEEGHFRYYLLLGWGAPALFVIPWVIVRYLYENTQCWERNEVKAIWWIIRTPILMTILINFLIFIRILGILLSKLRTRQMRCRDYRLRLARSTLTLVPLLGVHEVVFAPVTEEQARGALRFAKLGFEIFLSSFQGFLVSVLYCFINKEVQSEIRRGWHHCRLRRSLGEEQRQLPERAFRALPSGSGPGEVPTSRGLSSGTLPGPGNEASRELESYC
The experiment in a line: cell-based or functional assay.
For the molecule B1, the “Primary assay EC50 (cAMP), n1” value was found to be 22.8 nM and the “Primary assay EC50 (cAMP), n2” value was found to be 22.8 nM.

For B2, the “Primary assay EC50 (cAMP), n1” value came to 22.2 nM and the “Primary assay EC50 (cAMP), n2” value came to 22.2 nM.

Turning to B3, the “Primary assay EC50 (cAMP), n1” value was determined as 22.3 nM and the “Primary assay EC50 (cAMP), n2” value was 22.3 nM.

Turning to B4, the “Primary assay EC50 (cAMP), n1” value was 22.5 nM and the “Primary assay EC50 (cAMP), n2” value is 22.5 nM.

In the case of B5, the “Primary assay EC50 (cAMP), n1” value is 22.8 nM and the “Primary assay EC50 (cAMP), n2” value is 22.8 nM.

B6: the “Primary assay EC50 (cAMP), n1” value was 22.3 nM and the “Primary assay EC50 (cAMP), n2” value amounted to 22.3 nM.

In the case of B7, the “Primary assay EC50 (cAMP), n1” value is 21.6 nM and the “Primary assay EC50 (cAMP), n2” value came out at 21.6 nM.

Consider B8, for which the “Primary assay EC50 (cAMP), n1” value is 22.2 nM and the “Primary assay EC50 (cAMP), n2” value worked out at 22.2 nM.

On to B9, for which the “Primary assay EC50 (cAMP), n1” value is 22.6 nM and the “Primary assay EC50 (cAMP), n2” value stood at 22.6 nM.

For B10, the “Primary assay EC50 (cAMP), n1” value stood at 21.5 nM and the “Primary assay EC50 (cAMP), n2” value is 21.5 nM.
